Data from publication PMC12608094, “STN1 Shields CTC1 From TRIM32‐Mediated Ubiquitination to Prevent Cellular Aging” (Aging Cell, 2025).

Columns and labels:
[1] = target: T1, Flag-tagged CTC1 (wild type) (human, UniProt Q2NKJ3 1-1217)
T1 sequence (looked up): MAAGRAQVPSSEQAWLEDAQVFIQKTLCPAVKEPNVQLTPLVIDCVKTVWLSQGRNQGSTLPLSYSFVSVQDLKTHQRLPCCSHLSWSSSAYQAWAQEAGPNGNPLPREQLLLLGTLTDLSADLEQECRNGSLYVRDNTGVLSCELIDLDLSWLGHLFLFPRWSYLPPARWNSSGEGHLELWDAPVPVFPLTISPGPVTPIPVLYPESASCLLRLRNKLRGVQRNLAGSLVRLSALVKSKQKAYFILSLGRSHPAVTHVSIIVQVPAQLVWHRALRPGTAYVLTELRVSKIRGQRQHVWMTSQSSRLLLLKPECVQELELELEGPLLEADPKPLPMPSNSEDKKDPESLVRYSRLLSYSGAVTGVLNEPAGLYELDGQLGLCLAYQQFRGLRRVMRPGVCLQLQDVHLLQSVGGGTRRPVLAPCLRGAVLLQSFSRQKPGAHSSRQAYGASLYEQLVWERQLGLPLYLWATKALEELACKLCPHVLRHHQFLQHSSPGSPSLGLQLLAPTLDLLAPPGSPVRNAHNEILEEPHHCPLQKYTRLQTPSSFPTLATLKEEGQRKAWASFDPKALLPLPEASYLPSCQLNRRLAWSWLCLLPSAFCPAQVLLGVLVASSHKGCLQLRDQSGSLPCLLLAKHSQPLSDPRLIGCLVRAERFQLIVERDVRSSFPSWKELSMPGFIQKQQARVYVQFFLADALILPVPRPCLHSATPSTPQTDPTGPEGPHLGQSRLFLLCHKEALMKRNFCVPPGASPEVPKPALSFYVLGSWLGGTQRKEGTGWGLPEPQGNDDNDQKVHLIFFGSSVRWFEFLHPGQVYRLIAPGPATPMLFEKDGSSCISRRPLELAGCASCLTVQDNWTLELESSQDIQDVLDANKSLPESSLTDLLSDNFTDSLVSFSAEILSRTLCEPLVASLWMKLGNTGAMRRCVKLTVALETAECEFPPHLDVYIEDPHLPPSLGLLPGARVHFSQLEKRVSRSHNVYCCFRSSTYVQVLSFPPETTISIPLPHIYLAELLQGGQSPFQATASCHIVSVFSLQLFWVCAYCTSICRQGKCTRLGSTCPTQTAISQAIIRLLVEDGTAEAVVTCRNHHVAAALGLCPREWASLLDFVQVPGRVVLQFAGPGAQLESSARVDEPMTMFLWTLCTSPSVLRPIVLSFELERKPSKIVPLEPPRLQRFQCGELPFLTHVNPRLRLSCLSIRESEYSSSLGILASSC

[2] = target: T1, Flag-tagged CTC1 (wild type); test: cell-based or functional assay

Molecule “HA-tagged STN1 wHTH (C-terminal half-truncation) (domain or fragment)” has a half-life of Flag-CTC1 in HEK293T cells (CHX chase over 12 h) with HA-STN1 wHTH [1] of 5 h.

For “HA-tagged STN1 OB (N-terminal half-truncation) (domain or fragment)”, the half-life of Flag-CTC1 in HEK293T cells (CHX chase over 12 h) with HA-STN1OB [1] was 8 h.

B1: HA-tagged STN1 (wild type) (natural protein, human, UniProt Q9H668 1-368, looked up)
chain: MQPGSSRCEEETPSLLWGLDPVFLAFAKLYIRDILDMKESRQVPGVFLYNGHPIKQVDVLGTVIGVRERDAFYSYGVDDSTGVINCICWKKLNTESVSAAPSAARELSLTSQLKKLQETIEQKTKIEIGDTIRVRGSIRTYREEREIHATTYYKVDDPVWNIQIARMLELPTIYRKVYDQPFHSSALEKEEALSNPGALDLPSLTSLLSEKAKEFLMENRVQSFYQQELEMVESLLSLANQPVIHSASSDQVNFKKDTTSKAIHSIFKNAIQLLQEKGLVFQKDDGFDNLYYVTREDKDLHRKIHRIIQQDCQKPNHMEKGCHFLHILACARLSIRPGLSEAVLQQVLELLEDQSDIVSTMEHYYTAF
For B1, the “half-life of Flag-CTC1 in HEK293T cells (CHX chase over 12 h) with HA-STN1 WT” value [2] was 10 h.
